± gives the standard deviation of the averaged measurements.
Each sequence was assayed on Saccharomyces cerevisiae (assay: protein stability index of tFT-peptide fusion (C-terminal peptide) (PSI (0-1 scale)); higher = more stable (slower turnover)). Details: genetic background: das1 deletion; temperature: 30 C.
Procedure: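 MPS profiling in S. cerevisiae of the yeast C-terminome library: the last 12 aa of each annotated ORF are fused to the C-terminus of a sfGFP-mCherry timer, after a GGGS linker. Cells are FACS-sorted into 8 mCherry/sfGFP bins and deep-sequenced. PSI runs from 0 (unstable) to 1 (stable); wild type and das1Δ backgrounds, two technical replicates each.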
In the case of IHRVIKNATPVA [PEX28 C-terminal 12 aa], the protein stability index is reported as 0.624 ± 0.027.
IHSGYTNISYTI [MCM16 C-terminal 12 aa] gave a protein stability index of 0.709 ± 0.0077.
Sequence IHYKMNENSTNQ [SYO1 C-terminal 12 aa] has a protein stability index of 0.689 ± 0.0075.
IIEEKVRNYLNK [RIB5 C-terminal 12 aa] gave a protein stability index of 0.696 ± 0.061.
For IKDAIKNGTGLL [MET31 C-terminal 12 aa], the protein stability index was 0.677 ± 0.0075.
Work on IKKEVSRRLNGR [CUR1 C-terminal 12 aa] yielded a protein stability index of 0.647 ± 0.016.
For IKNSSLAVLHST [YKL162C C-terminal 12 aa], the protein stability index was 0.705 ± 0.021.
IKTIVEAMDVLS [PCC1 C-terminal 12 aa] showed a protein stability index of 0.67028 ± 4.3e-05.
In the case of ILELPHVVSDLF [SDT1 C-terminal 12 aa], the protein stability index is reported as 0.713 ± 0.0089.
With IMALIAESGDDF [ERV14 C-terminal 12 aa] the protein stability index was 0.673 ± 0.021.
In the case of INDNNENASNSV [GLD1 C-terminal 12 aa], the protein stability index is reported as 0.6943 ± 0.0069.
INRRQTPLQSNA [CDC39 C-terminal 12 aa] was tested, and the protein stability index was 0.7 ± 0.011.
IQINKGDNIFKN [YTM1 C-terminal 12 aa] showed a protein stability index of 0.688 ± 0.026.
Work on IRIVITINKVTL [IRC9 C-terminal 12 aa] yielded a protein stability index of 0.348 ± 0.0076.
IRKPDDKFSSFI [YOR072W C-terminal 12 aa] showed a protein stability index of 0.702 ± 0.0082.
For IRMYLGSSLDIE [SRX1 C-terminal 12 aa], the protein stability index was 0.69 ± 0.013.
With ISICILDLASHL [YBL071C C-terminal 12 aa] the protein stability index was 0.6703 ± 0.0038.
In the case of ISLWYKHNRVKG [YPR077C C-terminal 12 aa], the protein stability index is reported as 0.677 ± 0.017.
ISSGPPPRSPNK [IGO2 C-terminal 12 aa] was tested, and the protein stability index was 0.68 ± 0.01.
ISTAPEQMMFLP [MSG5 C-terminal 12 aa] was tested, and the protein stability index was 0.7169 ± 0.0058.
ISVSKKTLKSNW [HOP1 C-terminal 12 aa] gave a protein stability index of 0.698 ± 0.011.
In the case of “IVKIIRFNHASV [YHL048C-A C-terminal 12 aa]”, the protein stability index is reported as 0.685 ± 0.016.
IVNDVWLPFQKW [DSD1 C-terminal 12 aa] gave a protein stability index of 0.729 ± 0.03.
IWKKVPETKRSG [VPS73 C-terminal 12 aa] gave a protein stability index of 0.707 ± 0.019.
Sequence IYSVTKKRNTRI [RSF2 C-terminal 12 aa] has a protein stability index of 0.725 ± 0.026.
Work on IYYKSQNWRREC [YBR219C C-terminal 12 aa] yielded a protein stability index of 0.707 ± 0.045.
KAEASEAAHDEL [CPR5 C-terminal 12 aa] showed a protein stability index of 0.695 ± 0.0055.
KAGREELERVNV [QCR8 C-terminal 12 aa] showed a protein stability index of 0.688 ± 0.026.
Sequence KAINFDEDVLNL [VID30 C-terminal 12 aa] has a protein stability index of 0.66 ± 0.017.
KALQKAMGSVQF [YEL1 C-terminal 12 aa] was tested, and the protein stability index was 0.702 ± 0.018.
With KARIVVAKSGEL [CPR1 C-terminal 12 aa] the protein stability index was 0.686 ± 0.018.
KCLDLLKTELGE [POC4 C-terminal 12 aa] was tested, and the protein stability index was 0.699 ± 0.018.
Work on KDSAQSLDDLLM [SFM1 C-terminal 12 aa] yielded a protein stability index of 0.7007 ± 0.0043.
For KDSKEYFKNANN [TSA2 C-terminal 12 aa], the protein stability index was 0.714 ± 0.022.

Same assay, conditions: genetic background: wild type; temperature: 30 C
With IHRVIKNATPVA [PEX28 C-terminal 12 aa] the protein stability index was 0.649 ± 0.026.
For IHSGYTNISYTI [MCM16 C-terminal 12 aa], the protein stability index was 0.7012 ± 0.0067.
IHYKMNENSTNQ [SYO1 C-terminal 12 aa] was tested, and the protein stability index was 0.68 ± 0.04.
Work on IIEEKVRNYLNK [RIB5 C-terminal 12 aa] yielded a protein stability index of 0.685 ± 0.01.
Work on IKDAIKNGTGLL [MET31 C-terminal 12 aa] yielded a protein stability index of 0.678 ± 0.014.
In the case of IKKEVSRRLNGR [CUR1 C-terminal 12 aa], the protein stability index is reported as 0.692 ± 0.03.
IKNSSLAVLHST [YKL162C C-terminal 12 aa] was tested, and the protein stability index was 0.205 ± 0.019.
IKTIVEAMDVLS [PCC1 C-terminal 12 aa] was tested, and the protein stability index was 0.656 ± 0.025.
ILELPHVVSDLF [SDT1 C-terminal 12 aa] was tested, and the protein stability index was 0.7147 ± 0.0022.
IMALIAESGDDF [ERV14 C-terminal 12 aa] gave a protein stability index of 0.7007 ± 0.0027.
With INDNNENASNSV [GLD1 C-terminal 12 aa] the protein stability index was 0.676 ± 0.024.
Sequence INRRQTPLQSNA [CDC39 C-terminal 12 aa] has a protein stability index of 0.666 ± 0.011.
IQINKGDNIFKN [YTM1 C-terminal 12 aa] showed a protein stability index of 0.732 ± 0.025.
IRIVITINKVTL [IRC9 C-terminal 12 aa] showed a protein stability index of 0.36577 ± 0.00023.
For IRKPDDKFSSFI [YOR072W C-terminal 12 aa], the protein stability index was 0.706 ± 0.032.
IRMYLGSSLDIE [SRX1 C-terminal 12 aa] showed a protein stability index of 0.6815 ± 0.0061.
Work on ISICILDLASHL [YBL071C C-terminal 12 aa] yielded a protein stability index of 0.669 ± 0.018.
Sequence ISLWYKHNRVKG [YPR077C C-terminal 12 aa] has a protein stability index of 0.5619 ± 0.0045.
ISSGPPPRSPNK [IGO2 C-terminal 12 aa] was tested, and the protein stability index was 0.6422 ± 0.0036.
In the case of ISTAPEQMMFLP [MSG5 C-terminal 12 aa], the protein stability index is reported as 0.7155 ± 0.0068.
ISVSKKTLKSNW [HOP1 C-terminal 12 aa] showed a protein stability index of 0.686 ± 0.022.
With “IVKIIRFNHASV [YHL048C-A C-terminal 12 aa]” the protein stability index was 0.658 ± 0.034.
Sequence IVNDVWLPFQKW [DSD1 C-terminal 12 aa] has a protein stability index of 0.701 ± 0.02.
With IWKKVPETKRSG [VPS73 C-terminal 12 aa] the protein stability index was 0.669 ± 0.022.
For IYSVTKKRNTRI [RSF2 C-terminal 12 aa], the protein stability index was 0.693 ± 0.092.
Work on IYYKSQNWRREC [YBR219C C-terminal 12 aa] yielded a protein stability index of 0.169 ± 0.0069.
Work on KAEASEAAHDEL [CPR5 C-terminal 12 aa] yielded a protein stability index of 0.676 ± 0.038.
Sequence KAGREELERVNV [QCR8 C-terminal 12 aa] has a protein stability index of 0.685 ± 0.015.
In the case of KAINFDEDVLNL [VID30 C-terminal 12 aa], the protein stability index is reported as 0.748 ± 0.02.
With KALQKAMGSVQF [YEL1 C-terminal 12 aa] the protein stability index was 0.687 ± 0.03.
KARIVVAKSGEL [CPR1 C-terminal 12 aa] was tested, and the protein stability index was 0.645 ± 0.015.
KCLDLLKTELGE [POC4 C-terminal 12 aa] showed a protein stability index of 0.6935 ± 0.0043.
Work on KDSAQSLDDLLM [SFM1 C-terminal 12 aa] yielded a protein stability index of 0.6969 ± 0.0046.
With KDSKEYFKNANN [TSA2 C-terminal 12 aa] the protein stability index was 0.716 ± 0.02.

Source: the supplement of paper PMC10724198
